Measured values from patent US20230203203A1 (YISSUM RESEARCH DEVELOPMENT COMPANY OF THE HEBREW …, published 2023).
Square brackets hold non-standard residues; d marks the D form. Ends that are not written are not given here. AEEA = NCCOCCOCC(=O)O

T1: human CD177 (human, UniProt Q8N6Q3 22-408)
T1 construct: whole, on cells; On circulating human neutrophils of donors and patients; also called CD177 (on human neutrophils)
T1 sequence (looked up): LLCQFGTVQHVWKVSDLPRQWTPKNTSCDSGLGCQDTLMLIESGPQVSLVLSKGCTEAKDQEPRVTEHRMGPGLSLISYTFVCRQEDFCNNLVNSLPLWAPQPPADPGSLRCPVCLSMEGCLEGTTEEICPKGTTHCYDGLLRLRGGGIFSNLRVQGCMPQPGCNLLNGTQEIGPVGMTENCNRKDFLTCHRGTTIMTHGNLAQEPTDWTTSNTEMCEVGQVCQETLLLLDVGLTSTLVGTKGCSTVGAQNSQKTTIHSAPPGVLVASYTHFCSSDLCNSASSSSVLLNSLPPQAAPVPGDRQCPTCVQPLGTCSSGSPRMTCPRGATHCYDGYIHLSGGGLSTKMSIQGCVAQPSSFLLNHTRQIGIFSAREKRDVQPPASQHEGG

T2: murine CD177 (mouse, UniProt Q8R2S8 22-817)
T2 construct: whole, on cells; On murine neutrophils (HDN, TAN, circulating), on HEK293T cells ectopically expressing it, and from neutrophil lysate in the pull-down; also called mouse CD177; CD177 (on murine neutrophils)
T2 sequence (looked up): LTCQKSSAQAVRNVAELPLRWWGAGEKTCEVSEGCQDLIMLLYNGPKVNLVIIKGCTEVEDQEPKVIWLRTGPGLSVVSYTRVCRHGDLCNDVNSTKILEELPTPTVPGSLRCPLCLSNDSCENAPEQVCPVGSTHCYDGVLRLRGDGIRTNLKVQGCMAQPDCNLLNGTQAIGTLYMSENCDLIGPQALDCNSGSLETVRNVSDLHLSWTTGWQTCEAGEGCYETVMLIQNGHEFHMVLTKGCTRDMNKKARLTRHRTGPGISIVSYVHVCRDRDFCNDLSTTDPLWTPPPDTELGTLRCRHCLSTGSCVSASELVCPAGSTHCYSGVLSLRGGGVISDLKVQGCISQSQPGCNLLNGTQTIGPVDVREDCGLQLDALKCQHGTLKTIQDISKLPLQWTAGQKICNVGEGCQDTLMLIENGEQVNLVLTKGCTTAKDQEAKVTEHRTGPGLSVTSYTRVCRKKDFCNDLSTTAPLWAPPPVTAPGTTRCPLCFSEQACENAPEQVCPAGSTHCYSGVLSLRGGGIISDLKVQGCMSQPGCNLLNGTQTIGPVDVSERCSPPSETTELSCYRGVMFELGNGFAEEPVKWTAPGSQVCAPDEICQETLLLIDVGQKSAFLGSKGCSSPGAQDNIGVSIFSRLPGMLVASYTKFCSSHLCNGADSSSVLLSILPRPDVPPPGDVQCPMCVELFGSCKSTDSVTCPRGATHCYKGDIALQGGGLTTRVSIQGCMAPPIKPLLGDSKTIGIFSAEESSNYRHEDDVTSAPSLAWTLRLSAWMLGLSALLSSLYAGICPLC

B1: phage presenting peptide 4 (PSS) (other)
chain: PSSNLESTPLSLL
notes: not shown: phage coat protein pVIII flanking the inserted peptide
B2: LQI tetramer peptide, (LQIQSWSSSP-Doa-Doa-C)4-(Mpa)4-Lys2-Lys-beta-Ala-Lys(Biotin)-beta-Ala-OH (peptide)
peptide: LQIQSWSSSP[AEEA][AEEA]C
modifications: also: tetramer: four chains joined via Cys-Mpa to branched Lys core
notes: Branched tetramer, MW 7.6 kDa; Detected with SA-Cy3 after washing ('tetramer alone' assay); also called tetrameric LQI; biotinylated LQI-tetramer
B3: phage presenting peptide ELV (other)
chain: ELVTASMPRPNN
notes: as for B1
B4: phage presenting peptide 27 (LAT) (other)
chain: LATTHMVFSPDH
notes: as for B1
B5: phage presenting peptide PEL (other)
chain: PELDSKPYFPPL
notes: as for B1
B6: phage presenting peptide SLE (other)
chain: SLESSPMAQLPQ
notes: as for B1
B7: phage presenting peptide SEL (other)
chain: SELRSTPLLVPS
notes: as for B1
B8: phage presenting peptide 1.1 (KFP) (other)
chain: KFPDLDSRRLPHMSL
notes: detected with PE-conjugated anti-M13 antibody; not shown: phage coat protein pVIII flanking the inserted peptide

Key:
human CD177 [1] = target: T1, human CD177; test: flow cytometry on WBCs of healthy volunteers, anti-M13-PE (FIG. 13I)
Procedure: In order to assess the binding efficiency of each peptide to human circulating neutrophils, and the level of variability between individuals, the individual binding of each peptide to 5-8 healthy volunteers was assessed. Blood withdrawn from healthy volunteers was overlaid on 3% dextran in 0.9% NaCl in a 1:1 ratio and left at RT for 25 min to allow erythrocyte sedimentation. Residual RBCs were lysed by adding water for 30 sec and stopped by adding PBS×5 supplemented with 2.5% BSA. Following red blood cell lysis, 0.5×10⁶ WBCs were incubated with each phage separately. The level of binding of the different phages to the neutrophils was then assessed by flow cytometry. Neutrophils were identified based on a CD66b⁺ SSC^high gating, and the level of phage binding was assessed using PE-conjugated anti-M13 antibody for specific phage staining.

human CD177 [2] = target: T1, human CD177; test: negative control on WBCs of a lung cancer patient, flow cytometry
murine CD177 [3] = target: T2, murine CD177; test: pull-down from murine neutrophil lysate with biotinylated LQI-tetramer on streptavidin-agarose beads, mass spectrometry
Procedure: After washing, the bound proteins were eluted by incubating the beads for 10 min at 95° C. in protein sample buffer containing beta-mercaptoethanol. The gel was stained using silver staining. Lanes of the eluates of peptide- and control-beads were cut out and analyzed by mass spectrometry.

murine CD177 [4] = target: T2, murine CD177; test: titration on purified murine HDNs, flow cytometry; target named as neutrophils
murine CD177 [5] = target: T2, murine CD177; test: flow cytometry on WBC of 4T1 tumor bearing mice, anti-M13-PE; target named as neutrophils

Binder | percent of circulating neutrophils bound, average of donors (human CD177 [1]) [%] | further results
B1 | ~60 | –
B2 | – | binding result (human CD177 [2]): no binding; peptide/control ratio (murine CD177 [3]): 7.89; Kd (murine CD177 [4]): 3.3 µM
B3 | ~60 | –
B4 | ~60 | –
B5 | ~60 | –
B6 | ~60 | –
LQIQSWSSSP (peptide, part only; not given: phage coat protein VIII, part only) [phage presenting the … (SEQ ID NO: 9) peptide on coat protein VIII] | – | percent of neutrophils bound (murine CD177 [5]): 95%
B7 | ~60 | –
SSLMTTQLIATSI (peptide, not shown: large carriers) [phage presenting peptide 14 (SSL)] | 60 | –
B8 | ~60 | –
